Test results from patent publication US20210371867A1 (SYSMEX, published 2021).

T1: human CD80/B7-1 protein (His tag) (human, UniProt P33681 35-242)
T1 construct: Recombinant His-tagged protein used as the antigen solution; also called antigen
T1 sequence (looked up): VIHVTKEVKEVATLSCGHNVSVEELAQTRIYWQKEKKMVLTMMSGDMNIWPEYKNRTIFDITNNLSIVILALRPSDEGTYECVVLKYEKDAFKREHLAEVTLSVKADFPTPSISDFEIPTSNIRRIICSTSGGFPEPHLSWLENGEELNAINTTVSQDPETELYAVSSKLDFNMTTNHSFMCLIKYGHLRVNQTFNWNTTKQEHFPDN


These binders were tested against T1, human CD80/B7-1 protein (His tag) (assay: sandwich chemiluminescence ELISA; capture rabbit anti-CD80 IgG on plate, antigen 0.005-20 ng/mL, binder as detection antibody at 200 ng/mL).
Protocol: Rabbit anti-CD80 antibody (IgG) was diluted with PBS to 1 μg/mL. The resulting antibody solution was added to a 96-well black plate at 100 μL/well and allowed to stand overnight at 4° C. to immobilize the antibody in the wells. After removing the antibody solution from the plate, Buffer I′ (100 mM HEPES, 1% BSA, 0.05% ProClin (trademark), 1 mM MgCl₂, 0.1 mM ZnCl₂, pH 8.0) was added at 300 μL/well and allowed to stand overnight at 4° C. for blocking. After removing the solution from the plate, a human CD80/B7-1 protein (His tag) solution (0.005, 0.020, 0.078, 0.313, 1.25, 5.0 or 20 ng/mL) was added as an antigen solution at 100 μL/well. The plate was shaken at room temperature at 500 rpm for 1 hour to perform an antigen-antibody reaction. The plate was washed three times with a HISCL washing solution (Sysmex Corporation), and then each ALP fusion antibody (200 ng/mL) of Example 1 diluted with Buffer I′ was added at 100 μL/well. The plate was shaken at room temperature at 500 rpm for 1 hour to perform an antigen-antibody reaction. After washing the plate with a HISCL washing solution three times, a HISCL R5 reagent (Sysmex Corporation) as a solution of a chemiluminescent substrate of ALP was added at 100 μL/well, and luminescence intensity was immediately measured with FLUOstar OPTIMA (BMG LABTECH).

| Binder | binding result |
| --- | --- |
| ALP fusion antibody of Example 1 (GS1 linker): Fab of rabbit anti-CD80 antibody, Fd-GS1-BIAPII (Fab, Fab-enzyme fusion; two ALP fusion Fab molecules form a complex by dimer formation of the ALP subunits; also called Fab-GS1-BIAPII; ALP fusion antibody (GS1 linker)) heavy: QSVEESGGRLVTPGTPLTLTCTASGFSLSNNAVSWVRQAPGEGLEWIGTISSNDNTYYATWAKGRFTISKTSTTVDLKITSPTTEDTATYFCAIYYYGYGYVFNLWGPGTLVTVSSGQPKAPSVFPLAPCCGDTPSSTVTLGCLVKGYLPEPVTVTWNSGTLTNGVRTFPSVRQSSGLYSLSSVVSVTSSSQPVTCNVAHPATNTKVDKTVAPSTCSKPTGGGGSLIPAEEENPAFWNRQAAQALDVAKKLQPIQTAAKNVILFLGDGMGVPTVTATRILKGQMNGKLGPETPLAMDQFPYVALSKTYNVDRQVPDSAGTATAYLCGVKGNYRTIGVSAAARYNQCNTTRGNEVTSVINRAKKAGKAVGVVTTTRVQHASPAGAYAHTVNRNWYSDADLPADAQKNGCQDIAAQLVYNMDIDVILGGGRMYMFPEGTPDPEYPDDASVNGVRKDKQNLVQEWQAKHQGAQYVWNRTALLQAADDSSVTHLMGLFEPADMKYNVQQDHTKDPTLAEMTEAALQVLSRNPRGFYLFVEGGRIDHGHHDGKAYMALTEAIMFDNAIAKANELTSELDTLILVTADHSHVFSFGGYTLRGTSIFGLAPGKALDSKSYTSILYGNGPGYALGGGSRPDVNGSTSEEPSYRQQAAVPLASETHGGEDVAVFARGPQAHLVHGVQEETFVAHIMAFAGCVEPYTDCNLPAPA light: ELVMTQTPASVSEPVGGTVTINCQASEDIYSSLAWYQQKPGQRPKLLMYYASTLASGVPSRFKGSGSGTEFTLTISDLECADAATYYCQSYYLSSSSRYGNAFGGGTEVVVKGDPVAPTVLIFPPAADQVATGTVTIVCVANKYFPDVTVTWEVDGTTQTTGIENSKTPQNSADCTYNLSSTLTLTSTQYNSHKEYTCKVTQGTTSVVQSFIG | binds |
| ALP fusion antibody of Example 1 (EK1 linker): Fab of rabbit anti-CD80 antibody, Fd-EK1-BIAPII (Fab, Fab-enzyme fusion, dimer through the ALP subunits) heavy: QSVEESGGRLVTPGTPLTLTCTASGFSLSNNAVSWVRQAPGEGLEWIGTISSNDNTYYATWAKGRFTISKTSTTVDLKITSPTTEDTATYFCAIYYYGYGYVFNLWGPGTLVTVSSGQPKAPSVFPLAPCCGDTPSSTVTLGCLVKGYLPEPVTVTWNSGTLTNGVRTFPSVRQSSGLYSLSSVVSVTSSSQPVTCNVAHPATNTKVDKTVAPSTCSKPTEAAAKLIPAEEENPAFWNRQAAQALDVAKKLQPIQTAAKNVILFLGDGMGVPTVTATRILKGQMNGKLGPETPLAMDQFPYVALSKTYNVDRQVPDSAGTATAYLCGVKGNYRTIGVSAAARYNQCNTTRGNEVTSVINRAKKAGKAVGVVTTTRVQHASPAGAYAHTVNRNWYSDADLPADAQKNGCQDIAAQLVYNMDIDVILGGGRMYMFPEGTPDPEYPDDASVNGVRKDKQNLVQEWQAKHQGAQYVWNRTALLQAADDSSVTHLMGLFEPADMKYNVQQDHTKDPTLAEMTEAALQVLSRNPRGFYLFVEGGRIDHGHHDGKAYMALTEAIMFDNAIAKANELTSELDTLILVTADHSHVFSFGGYTLRGTSIFGLAPGKALDSKSYTSILYGNGPGYALGGGSRPDVNGSTSEEPSYRQQAAVPLASETHGGEDVAVFARGPQAHLVHGVQEETFVAHIMAFAGCVEPYTDCNLPAPA light: ELVMTQTPASVSEPVGGTVTINCQASEDIYSSLAWYQQKPGQRPKLLMYYASTLASGVPSRFKGSGSGTEFTLTISDLECADAATYYCQSYYLSSSSRYGNAFGGGTEVVVKGDPVAPTVLIFPPAADQVATGTVTIVCVANKYFPDVTVTWEVDGTTQTTGIENSKTPQNSADCTYNLSSTLTLTSTQYNSHKEYTCKVTQGTTSVVQSFIG | binds |
| ALP fusion antibody of Example 1 (GS2 linker): Fab of rabbit anti-CD80 antibody, Fd-GS2-BIAPII (Fab, Fab-enzyme fusion, dimer through the ALP subunits) heavy: QSVEESGGRLVTPGTPLTLTCTASGFSLSNNAVSWVRQAPGEGLEWIGTISSNDNTYYATWAKGRFTISKTSTTVDLKITSPTTEDTATYFCAIYYYGYGYVFNLWGPGTLVTVSSGQPKAPSVFPLAPCCGDTPSSTVTLGCLVKGYLPEPVTVTWNSGTLTNGVRTFPSVRQSSGLYSLSSVVSVTSSSQPVTCNVAHPATNTKVDKTVAPSTCSKPTGGGGSGGGGSLIPAEEENPAFWNRQAAQALDVAKKLQPIQTAAKNVILFLGDGMGVPTVTATRILKGQMNGKLGPETPLAMDQFPYVALSKTYNVDRQVPDSAGTATAYLCGVKGNYRTIGVSAAARYNQCNTTRGNEVTSVINRAKKAGKAVGVVTTTRVQHASPAGAYAHTVNRNWYSDADLPADAQKNGCQDIAAQLVYNMDIDVILGGGRMYMFPEGTPDPEYPDDASVNGVRKDKQNLVQEWQAKHQGAQYVWNRTALLQAADDSSVTHLMGLFEPADMKYNVQQDHTKDPTLAEMTEAALQVLSRNPRGFYLFVEGGRIDHGHHDGKAYMALTEAIMFDNAIAKANELTSELDTLILVTADHSHVFSFGGYTLRGTSIFGLAPGKALDSKSYTSILYGNGPGYALGGGSRPDVNGSTSEEPSYRQQAAVPLASETHGGEDVAVFARGPQAHLVHGVQEETFVAHIMAFAGCVEPYTDCNLPAPA light: ELVMTQTPASVSEPVGGTVTINCQASEDIYSSLAWYQQKPGQRPKLLMYYASTLASGVPSRFKGSGSGTEFTLTISDLECADAATYYCQSYYLSSSSRYGNAFGGGTEVVVKGDPVAPTVLIFPPAADQVATGTVTIVCVANKYFPDVTVTWEVDGTTQTTGIENSKTPQNSADCTYNLSSTLTLTSTQYNSHKEYTCKVTQGTTSVVQSFIG | binds |
| ALP fusion antibody of Example 1 (EK2 linker): Fab of rabbit anti-CD80 antibody, Fd-EK2-BIAPII (Fab, Fab-enzyme fusion, dimer through the ALP subunits) heavy: QSVEESGGRLVTPGTPLTLTCTASGFSLSNNAVSWVRQAPGEGLEWIGTISSNDNTYYATWAKGRFTISKTSTTVDLKITSPTTEDTATYFCAIYYYGYGYVFNLWGPGTLVTVSSGQPKAPSVFPLAPCCGDTPSSTVTLGCLVKGYLPEPVTVTWNSGTLTNGVRTFPSVRQSSGLYSLSSVVSVTSSSQPVTCNVAHPATNTKVDKTVAPSTCSKPTEAAAKEAAAKLIPAEEENPAFWNRQAAQALDVAKKLQPIQTAAKNVILFLGDGMGVPTVTATRILKGQMNGKLGPETPLAMDQFPYVALSKTYNVDRQVPDSAGTATAYLCGVKGNYRTIGVSAAARYNQCNTTRGNEVTSVINRAKKAGKAVGVVTTTRVQHASPAGAYAHTVNRNWYSDADLPADAQKNGCQDIAAQLVYNMDIDVILGGGRMYMFPEGTPDPEYPDDASVNGVRKDKQNLVQEWQAKHQGAQYVWNRTALLQAADDSSVTHLMGLFEPADMKYNVQQDHTKDPTLAEMTEAALQVLSRNPRGFYLFVEGGRIDHGHHDGKAYMALTEAIMFDNAIAKANELTSELDTLILVTADHSHVFSFGGYTLRGTSIFGLAPGKALDSKSYTSILYGNGPGYALGGGSRPDVNGSTSEEPSYRQQAAVPLASETHGGEDVAVFARGPQAHLVHGVQEETFVAHIMAFAGCVEPYTDCNLPAPA light: ELVMTQTPASVSEPVGGTVTINCQASEDIYSSLAWYQQKPGQRPKLLMYYASTLASGVPSRFKGSGSGTEFTLTISDLECADAATYYCQSYYLSSSSRYGNAFGGGTEVVVKGDPVAPTVLIFPPAADQVATGTVTIVCVANKYFPDVTVTWEVDGTTQTTGIENSKTPQNSADCTYNLSSTLTLTSTQYNSHKEYTCKVTQGTTSVVQSFIG | binds |
| ALP fusion antibody of Example 1 (GS3 linker): Fab of rabbit anti-CD80 antibody, Fd-GS3-BIAPII (Fab, Fab-enzyme fusion, dimer through the ALP subunits) heavy: QSVEESGGRLVTPGTPLTLTCTASGFSLSNNAVSWVRQAPGEGLEWIGTISSNDNTYYATWAKGRFTISKTSTTVDLKITSPTTEDTATYFCAIYYYGYGYVFNLWGPGTLVTVSSGQPKAPSVFPLAPCCGDTPSSTVTLGCLVKGYLPEPVTVTWNSGTLTNGVRTFPSVRQSSGLYSLSSVVSVTSSSQPVTCNVAHPATNTKVDKTVAPSTCSKPTGGGGSGGGGSGGGGSLIPAEEENPAFWNRQAAQALDVAKKLQPIQTAAKNVILFLGDGMGVPTVTATRILKGQMNGKLGPETPLAMDQFPYVALSKTYNVDRQVPDSAGTATAYLCGVKGNYRTIGVSAAARYNQCNTTRGNEVTSVINRAKKAGKAVGVVTTTRVQHASPAGAYAHTVNRNWYSDADLPADAQKNGCQDIAAQLVYNMDIDVILGGGRMYMFPEGTPDPEYPDDASVNGVRKDKQNLVQEWQAKHQGAQYVWNRTALLQAADDSSVTHLMGLFEPADMKYNVQQDHTKDPTLAEMTEAALQVLSRNPRGFYLFVEGGRIDHGHHDGKAYMALTEAIMFDNAIAKANELTSELDTLILVTADHSHVFSFGGYTLRGTSIFGLAPGKALDSKSYTSILYGNGPGYALGGGSRPDVNGSTSEEPSYRQQAAVPLASETHGGEDVAVFARGPQAHLVHGVQEETFVAHIMAFAGCVEPYTDCNLPAPA light: ELVMTQTPASVSEPVGGTVTINCQASEDIYSSLAWYQQKPGQRPKLLMYYASTLASGVPSRFKGSGSGTEFTLTISDLECADAATYYCQSYYLSSSSRYGNAFGGGTEVVVKGDPVAPTVLIFPPAADQVATGTVTIVCVANKYFPDVTVTWEVDGTTQTTGIENSKTPQNSADCTYNLSSTLTLTSTQYNSHKEYTCKVTQGTTSVVQSFIG | binds |
